Results reported in US11278600B2, “Human alpha-galactosidase variants” (Codexis, Inc., priority 2014, dated 2022).

What was measured:
Type in all cases: biochemical
[1] = HTP-analysis of supernatants pretreated with base (MUGal hydrolysis); settings: challenge at pH 7.6; activity of the variant/activity of Rd2BB (SEQ ID NO: 10); yeast supernatant
Method in brief: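 Supernatants from INVSc1 yeast expressing GLA variants (SD-Ura, 66-84 h, 30° C) were mixed with McIlvaine buffer pH 7.0-8.2 or 200 mM sodium bicarbonate pH 9.1-9.7 and held 1-18 h at 37° C. Residual activity was then measured on MUGal at pH 4.8/4.3, 37° C, 30-180 min, by fluorescence (Ex 355/Em 448 nm).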

[2] = HTP-analysis of yeast culture supernatants, no challenge (MUGal hydrolysis); settings: activity of the variant/activity of Rd2BB (SEQ ID NO: 10), yeast supernatant
Method in brief: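 Activity read as 4-methylumbelliferyl α-D-galactopyranoside hydrolysis: fluorescence (355/448 nm) after sodium carbonate stop, following 30-180 min at 37° C with 2 mM MUGal stock at pH 4.6–4.8. Enzyme source is unchallenged culture supernatant of INVSc1 yeast expressing GLA variants, grown 66-84 h at 30° C.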

[3] = HTP-analysis of supernatants pretreated with acid (MUGal hydrolysis); settings: challenge at pH 4.2; activity of the variant/activity of Rd2BB (SEQ ID NO: 10); yeast supernatant
Method in brief: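 Yeast INVSc1 supernatant, GLA variants; acid challenge: McIlvaine pH 3.3-4.3, 37° C., 1-3 h. Assay: MUGal in McIlvaine pH 4.8 plus citrate pH 4.3, 37° C., 30-180 min, Na2CO3 stop, Ex 355/Em 448 nm.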

Molecule	Relative Activity of GLA Variants After Challenge at pH 7.6 [1]	Relative Activity of GLA Variants After No Challenge (NC) [2]	Relative Activity of GLA Variants After Challenge at pH 4.2 [3]
213 (protein, Synthetic Polypeptide sequence of Variant No. 213 of mature Human GLA) LDNGLARTPTMGWLQWERFMCNLDCQEEPDSCISEKLFMEMAELMVSEGWKDAGYEYLCIDDCWMAPQRDSEGRLQADPQRFPHGIRQLANYVHSKGLKLGIYADVGNKTCAGFPGSFGYYDIDAQTFADWGVDLLKFDGCYCDSLENLADGYKHMSLALNRTGRSIVYSCEWPLYMWPFQKPNYTEIRQYCNHWRNFADIDDSWASIKSILDWTSFNQERIVDVAGPGGWNDPDMLVIGNFGLSWNQQVTQMALWAIMAAPLFMSNDLRHISPQAKALLQDKDVIAINQDPLGKQGYQLRQGDNFEVWERPLSGLAWAVAMINRQEIGGPRSYTIAVASLGKGVACNPACFITQLLPVKRKLGFYEWTSRLRSHINPTGTVLLQLENTMQMSKDLLL	− (− = <0.5 relative activity over Rd2BB (SEQ ID NO: 10))	+ (+ = 0.5 to 1.5 relative activity over Rd2BB (SEQ ID NO: 10))	− (− = <0.5 relative activity over Rd2BB (SEQ ID NO: 10))
219 (protein, Synthetic Polypeptide sequence of Variant No. 219 of mature Human GLA) LDNGLARTPTMGWLHWERFMCNLDCQEEPDSCISEKLFMEMAELMVSEGWKDAGYEYLCIDDCWMAPQRDSEGRLQADPQRFPHGIRQLANYVHSKGLKLGIYADVGNKTCAGFPGSFGYYDIDAQTFADWGVDLLKFDGCYCDSLENLADGYKHMSLALNRTGRSIVYSCEWPLYMWPFQKPNYTEIRQYCNHWRNFADIDDSWASIKSILDWTSFNQERIVDVAGPGGWNDPDMLVIGNFGLSWNQQVTQMALWAIMAAPLFMSNDLRHISPQAKALLQDKDVIAINQDPLGKQGYQLRQGDNFEVWERPLSGLAWAVAIINRQEIGGPRSYTIAVASLGKGVACNPACFITQLLPVKRKLGFYEWTSRLKSHINPTGTVLLQLENTMQMSKDLLL	+ (+ = 0.5 to 1.5 relative activity over Rd2BB (SEQ ID NO: 10))	+ (+ = 0.5 to 1.5 relative activity over Rd2BB (SEQ ID NO: 10))	+ (+ = 0.5 to 1.5 relative activity over Rd2BB (SEQ ID NO: 10))
214 (protein, Synthetic Polypeptide sequence of Variant No. 214 of mature Human GLA) LDNGLARTPTMGWLHWERFMCNLDCQEEPDSCISEKLFMEMAELMVSEGWKDAGYEYLCIDDCWMAPQRDSEGRLQADPQRFPHGIRQLANYVHSKGLKLGIYADVGNKTCAGFPGSFGYYDIDAQTFADWGVDLLKFDGCYCDSLENLADGYKHMSLALNRTGRSIVYSCEWPLYMWPFQKPNYTEIRQYCNHWRNFADIDDSWASIKSILDWTSFNQERIVDVAGPGGWNDPDMLVIGNFGLSWNQQVTQMALWAIMAAPLFMSNDLRHISPQAKALLQDKDVIAINQDPLGKQGYQLRQGDNFEVWERPLSGLAWAVAMINRQEIGGPRSYTIAVASLGDGVACNPACFITQLLPVKRKLGLYNWTSRLRSHINPTGTVLLQLENTMQMSKDLLL	+++ (+++ = >2.5 relative activity over Rd2BB (SEQ ID NO: 10))	+++ (+++ = >2.5 relative activity over Rd2BB (SEQ ID NO: 10))	+++ (+++ = >2.5 relative activity over Rd2BB (SEQ ID NO: 10))
218 (protein, Synthetic Polypeptide sequence of Variant No. 218) LDNGLARTPTMGWLHWERFMCNLDCQEEPDSCISEKLFMEMAELMVSEGWKDAGYEYLCIDDCWMAPQRDSEGRLQADPQRFPHGIRQLANYVHSKGLKLGIYADVGNKTCAGFPGSFGYYDIDAQTFADWGVDLLKFDGCYCDSLENLADGYKHMSLALNRTGRSIVYSCEWPLYMWPFQKPNYTEIRQYCNHWRNFADIDDSWASIKSILDWTSFNQERIVDVAGPGGWNDPDMLVIGNFGLSWNQQVTQMALWAIMAAPLFMSNDLRHISPQAKALLQDKDVIAINQDPLGKQGYQLRQGDNFEVWERPLSGLAWAVAIINRQEIGGPRSYTIAVASLGKGVACNPACFITQLLPVKRKLGFYNWTSRLKSHINPTGTVLLQLENTMQMSLKDLL	+++ (+++ = >2.5 relative activity over Rd2BB (SEQ ID NO: 10))	+++ (+++ = >2.5 relative activity over Rd2BB (SEQ ID NO: 10))	+++ (+++ = >2.5 relative activity over Rd2BB (SEQ ID NO: 10))
215 (protein, Synthetic Polypeptide sequence of Variant No. 215 of mature Human GLA) LDNGLARTPTMGWLHWERFMCNLDCQEEPDSCISEKLFMEMAELMVSEGWKDAGYEYLCIDDCWMAPQRDSEGRLQADPQRFPHGIRQLANYVHSKGLKLGIYADVGNKTCAGFPGSFGYYDIDAQTFADWGVDLLKFDGCYCDSLENLADGYKHMSLALNRTGRSIVYSCEWPLYMWPFQKPNYTEIRQYCNHWRNFADIDDSWASIKSILDWTSFNQERIVDVAGPGGWNDPDMLVIGNFGLSWNQQVTQMALWAIMAAPLFMSNDLRHISPQAKALLQDKDVIAINQDPLGKQGYQLRQGDNFEVWERPLSGLAWAVAMINRQEIGGPRSYTIAVASLGGGVACNPACFITQLLPVKRKLGFYEWTSRLRSHINPTGTVLLQLENTMQMSKDLLL	+ (+ = 0.5 to 1.5 relative activity over Rd2BB (SEQ ID NO: 10))	+ (+ = 0.5 to 1.5 relative activity over Rd2BB (SEQ ID NO: 10))	+ (+ = 0.5 to 1.5 relative activity over Rd2BB (SEQ ID NO: 10))
216 (protein, Synthetic Polypeptide sequence of Variant No. 216 of mature Human GLA) LDNGLARTPTMGWLHWERFMCNLDCQEEPDSCISEKLFMEMAELMVSEGWKDAGYEYLCIDDCWMAPQRDSEGRLQADPQRFPHGIRQLANYVHSKGLKLGIYADVGNKTCAGFPGSFGYYDIDAQTFADWGVDLLKFDGCYCDSLENLADGYKHMSLALNRTGRSIVYSCEWPLYMWPFQKPNYTEIRQYCNHWRNFADIDDSWASIKSILDWTSFNQERIVDVAGPGGWNDPDMLVIGNFGLSWNQQVTQMALWAIMAAPLFMSNDLRHISPQAKALLQDKDVIAINQDPLGKQGYQLRQGDNFEVWERPLSGLAWAVAMINRQEIGGPRSYTIAVASLGGGVACNPACFITQLLPVKRKLGLYNWTSRLKSHINPTGTVLLQLENTMQMSKDLLL	+++ (+++ = >2.5 relative activity over Rd2BB (SEQ ID NO: 10))	++ (++ = 1.5 to 2.5 relative activity over Rd2BB (SEQ ID NO: 10))	+++ (+++ = >2.5 relative activity over Rd2BB (SEQ ID NO: 10))
